Assay results taken from publication PMC8546539, “CK2 Phosphorylation of Human Papillomavirus 16 E2 on Serine 23 Promotes Interaction with TopBP1 and Is Critical for E2 Interaction with Mitotic Chromatin and the Viral Life Cycle” (mBio, 2021).

Assays:
TopBP1 [1] = target: TopBP1 (UniProt Q92547); assay: TopBP1 antibody co-IP, E2 Western blot; settings: reference: E2-WT; sites S23
TopBP1 [2] = target: TopBP1 (UniProt Q92547); assay: TopBP1 antibody co-IP, E2 Western blot; settings: reference: E2-WT; sites S23; remark: listed apart in the source
[3] = target: T1, GST TopBP1 (aa 32 to 1522) His (UniProt Q92547 32-1522); assay: pull-down; settings: both partners purified
T1 construct: also called GST-tagged TopBP1; recombinant GST-TopBP1 (full length); source: E. coli BL21(DE3), purified (Glutathione Sepharose 4B, size exclusion chromatography)

HPV16 E2 (from UniProt P03120) E2-S23A
binding against the reference (TopBP1 [1]): weaker | binding against the reference (TopBP1 [2]): weaker

B1: His-E2-S23D (amino acids 1 to 200) (domain or fragment)
chain: METLCQRLNVCQDKILTHYENDDTDLRDHIDYWKHMRLECAIYYKAREMGFKHINHQVVPTLAVSKNKALQAIELQLTLETIYNSQYSNEKWTLQDVSLEVYLTAPTGCIKKHGYTVEVQFDGDICNTMHYTNWTHIYICEEASVTVVEGQVDYYGLYYVHEGIRTYFVQFKDDAEKYSKNKVWEVHAGGQVILCPTSVF
notes: source: E. coli BL21(DE3), purified (Ni-NTA agarose, size exclusion chromatography)
binding result [3]: binds
